Experimental data from PMC9648850.

Test system: RtrC (Caulobacter crescentus (NA1000?))
Assay: EMSA
Conditions: 200 mM NaCl, 50 ng/ul poly(dI-dC), EMSA: 32.5 mM Tris pH 8 (at 4 C), 200 mM NaCl (chases: 30 mM Tris, 150 mM NaCl), 1 mM EDTA, 30% glycerol, 1 mM DTT, 10 ug/ml BSA, 20 C …

hfiA promoter probe, labeled
Kd: 45 nM
